Experimental data taken from patent US20160200813A1.
Blank lines part the entries; values can stand above or below the binder they belong to.

Experiments:
[1] = molecular target: Mouse LRP-8 expressed on HEK293 cells (mouse) (UniProt Q924X6); assay: mLRP8 cell binding
[2] = molecular target: Mouse LRP-8 expressed on HEK293 cells (mouse) (UniProt Q924X6); assay: cell-based MSD binding assay on 293H-mLRP8 cells; curve label LRP8-11H1
[3] = molecular target: Mouse LRP-8 expressed on HEK293 cells (mouse) (UniProt Q924X6); assay: cell-based ECL-MSD, 10 ug/ml Ab, mouse-LRP-8-HEK293
[4] = molecular target: Mouse LRP-8 expressed on HEK293 cells (mouse) (UniProt Q924X6); assay: fit of the FACS titration of FIG. 12A on mLRP8-transfected HEK293 cells; the column head prints EC50 only, nM is from legend paragraph 78 and the axis of FIG. 12A
[5] = molecular target: Mouse LRP-8 expressed on HEK293 cells (mouse) (UniProt Q924X6); assay: cell-based binding assay, mLRP8
[6] = molecular target: Mouse LRP-8 expressed on HEK293 cells (mouse) (UniProt Q924X6); assay: cell-based binding on MOUSE LRP8-HEK293, supernatant 1:25
[7] = molecular target: Mouse LRP-8 expressed on HEK293 cells (mouse) (UniProt Q924X6); assay: cell-based binding on MOUSE LRP8-HEK293, supernatant 1:125
[8] = molecular target: Mouse LRP-8 expressed on HEK293 cells (mouse) (UniProt Q924X6); assay: cell-based binding on MOUSE LRP8-HEK293, supernatant 1:5
[9] = molecular target: Mouse LRP-8 expressed on HEK293 cells (mouse) (UniProt Q924X6); assay: FACS, mouse LRP8 cells

EC50 [1]: 13.4 nM
EC50 [2]: 0.3 nM
B1: humanized ML199-11H1.5B2VH.1/VL.1a (antibody, V domains shown)
VH: EVQLVESGGGLVKPGGSLRLSCAASRFTFSNYGMSWVRQAPGKGLEWVSTISSGGRYTYYPDSVKGRFTISRDNAKNSLYLQMNSLRAEDTAVYYCARDYLYAMDYWGQGTTVTVSS
VL: DVVMTQSPLSLPVTPGEPASISCRSSQSLVYSNGNTYLHWYLQKPGQSPQVLMYKVSNRFSGVPDRFSGSGSGTDFTLKISRVEAEDVGVYFCSQSTHVPLTFGQGTKLEIK

fold over mIgG control [3]: 21.1 fold
B2: anti-LRP-8 ML201-8F3.3D7 murine antibody (muFc) (antibody, V domains shown)
VH: EVQLVESGGDLVKPGGSLKLSCAASRFTFSNFGMSWVRQTPDKRLEWVATISSGGRYTYYPDSVKGRFTISRDNAKNTLYLQMSSLRSEDTAMYYCARDYLYAMDYWGQGTSVTVSS
VL: DVVMTQTPLSLPVSLGDQASISCRSSQSLVYSNGNTYLHWYLQKPGQSPKVLMYKVSNRFSGVSDRFSGSGSGTDFTLKISRVEAEDLGVYFCSQSTHVPLTFGAGTKLELK

fold over mIgG control [3]: 23.1 fold
EC50 [4]: 8.36 nM
B3: anti-LRP-8 ML199-11H1.5B2 murine antibody (muFc) (antibody, V domains shown)
VH: EVQLVESGGDLVKPGGSLKLSCAASRFTFSNYGMSWVRQTPDKRLEWVATISSGGRYTYYPDSVKGRFTISRDNAKNTLYLQMSSLRSEDTAMYYCARDYLYAMDYWGQGTSVTVSS
VL: DVVMTQTPLSLPVSLGDQASISCRSSQSLVYSNGNTYLHWYLQKPGQSPKVLMYKVSNRFSGVSDRFSGSGSGTDFTLKISRVEAEDLGVYFCSQSTHVPLTFGAGTKLELK

EC50 [1]: 6.83 nM
B4: humanized ML199-11H1.5B2VH.1a/VL.1 (antibody, V domains shown)
VH: EVQLVESGGGLVKPGGSLRLSCAASRFTFSNYGMSWVRQAPGKGLEWVATISSGGRYTYYPDSVKGRFTISRDNAKNSLYLQMNSLRAEDTAVYYCARDYLYAMDYWGQGTTVTVSS
VL: DIVMTQSPLSLPVTPGEPASISCRSSQSLVYSNGNTYLHWYLQKPGQSPQLLIYKVSNRFSGVPDRFSGSGSGTDFTLKISRVEAEDVGVYYCSQSTHVPLTFGQGTKLEIK

EC50 [1]: 7.92 nM
B5: humanized ML199-11H1.5B2VH.1/VL.1b (antibody, V domains shown)
VH: EVQLVESGGGLVKPGGSLRLSCAASRFTFSNYGMSWVRQAPGKGLEWVSTISSGGRYTYYPDSVKGRFTISRDNAKNSLYLQMNSLRAEDTAVYYCARDYLYAMDYWGQGTTVTVSS
VL: DVVMTQSPLSLPVTPGEPASISCRSSQSLVYSNGNTYLHWYLQKPGQSPQVLIYKVSNRFSGVPDRFSGSGSGTDFTLKISRVEAEDVGVYYCSQSTHVPLTFGQGTKLEIK

EC50 [1]: 22.4 nM
B6: humanized ML199-11H1.5B2VH.1/VL.1 (antibody, V domains shown)
VH: EVQLVESGGGLVKPGGSLRLSCAASRFTFSNYGMSWVRQAPGKGLEWVSTISSGGRYTYYPDSVKGRFTISRDNAKNSLYLQMNSLRAEDTAVYYCARDYLYAMDYWGQGTTVTVSS
VL: DIVMTQSPLSLPVTPGEPASISCRSSQSLVYSNGNTYLHWYLQKPGQSPQLLIYKVSNRFSGVPDRFSGSGSGTDFTLKISRVEAEDVGVYYCSQSTHVPLTFGQGTKLEIK

EC50 [1]: 41.8 nM
B7: humanized ML199-11H1.5B2VH.1a/VL.1a (antibody, V domains shown)
VH: EVQLVESGGGLVKPGGSLRLSCAASRFTFSNYGMSWVRQAPGKGLEWVATISSGGRYTYYPDSVKGRFTISRDNAKNSLYLQMNSLRAEDTAVYYCARDYLYAMDYWGQGTTVTVSS
VL: DVVMTQSPLSLPVTPGEPASISCRSSQSLVYSNGNTYLHWYLQKPGQSPQVLMYKVSNRFSGVPDRFSGSGSGTDFTLKISRVEAEDVGVYFCSQSTHVPLTFGQGTKLEIK

EC50 [1]: 19.6 nM
B8: humanized ML199-11H1.5B2VH.1a/VL.1b (antibody, V domains shown)
VH: EVQLVESGGGLVKPGGSLRLSCAASRFTFSNYGMSWVRQAPGKGLEWVATISSGGRYTYYPDSVKGRFTISRDNAKNSLYLQMNSLRAEDTAVYYCARDYLYAMDYWGQGTTVTVSS
VL: DVVMTQSPLSLPVTPGEPASISCRSSQSLVYSNGNTYLHWYLQKPGQSPQVLIYKVSNRFSGVPDRFSGSGSGTDFTLKISRVEAEDVGVYYCSQSTHVPLTFGQGTKLEIK

EC50 [5]: 3.92 nM
B9: anti-LRP-8 BGK-7F7 chimeric antibody (CL-105960) (antibody, V domains shown)
VH: QVTLKESGPGILQPSQTLSLTCTFSGFSLSTYGLGVGWIRQPSGKGLEWLANIWWDDAKYYNPSLKNRLTISKDTSNNQAFLKIPNVDTADTARYYCARTTKPYYFDYWGQGVMVTVSS
VL: HFVLAQPNSVSTNLGSTVKLSCKRSTANIGSNYVNWYQQHEGRSPTTLIYRDDRRPDGVPDRFSGSIDRSSNSALLTINNVQTEDEADYFCQSYSSGINIFGGGTKLTVL

EC50 [5]: 41.8 nM
B10: anti-LRP-8 BGK-6B5-2 chimeric antibody (CL-105969) (antibody, V domains shown)
VH: QVSLQESGPGILQPSQTLSLTCTFSGFSLSTFGMGVGWIRQPSGKGLEWLANIWWDDDKYYNPSLKNRLTISKDTSNNQAFLKITNVDTADTATYYCARTAKPYYFDYWGHGVMVTVSS
VL: HFVLAQPNSVSTNLGNTVKLSCKRSTGNIGSNYVNWYQQHEGRSPTTLIYRDDKRPDGVPDRFSGSFDRSSNSALLTINNVQTEDEADYFCQSYNSGINFFGGGTKLTVL

EC50 [5]: 27.6 nM
B11: anti-LRP-8 BGK-7A11 chimeric antibody (CL-105959) (antibody, V domains shown)
VH: QVTLKESGPGILQPSQTLSLTCTFSGFSLSTYGMGVGWIRQPAGTGLEWLANIWWDDDKYYNPSLKNRLTISKDTSNNQVFLKITNVDTADTATYYCARTTKPYYFDYWGQGVMVTVSS
VL: HFVLAQPNSVSTNLGSTVKLSCKRSTGNSGSNYVNWYQQYEGRSPTTMIYRDDKRPDGVPDRFSGSIDRSSNSALLTINNVQTEDEADYFCQSYSSGINIFGGGTKLTVL

EC50 [5]: 0.43 nM
B12: anti-LRP-8 BGK-9D10-2 antibody (CL-105967) (antibody, V domains shown)
VH: EVQLVESGGGLVQSGRSLKLSCAASGFTFSNYYMAWVRQAPKKGLEWVATITTSGSRSFYPDSVKGRFTISRDNAKSSLYLQINSLKSEDTATYYCARRGPLGYFDHWGRGVMVTVSS
VL: DIQMTQSPPSLPASLGDKVTITCQASQNINKYIAWYQQKPGKAPRLLIRFTSTLESDTPSRFSGSGSGRDYSFSISNVESEDFASYYCLHYDNLPPWTFGGGTKLELK

fold over isotype control [6]: 0.16 fold
fold over isotype control [7]: 0.16 fold
fold over isotype control [8]: 0.04 fold
B13: anti-LRP-8 BGK.5D10.E4 [r/m IgG2a/K] (antibody, V domains shown)
VH: QVQLRETGPDLVQPTQTLSLTCTVSGFSLTNYPVQWVRQPPGSGLEWLGIMWPSGAADFNPALKSRLSISRDTSKSQFFLRMDNLQTDDTAIYFCARGRGYSSPYAMDAWGQGTSVTVSS
VL: DIQMTQSPASLSASLGETVSIECLASEDIYNNLAWYQQKPGKSPHLLIHFTSNLQDGVPSRFSGSGSGTQYSLKINSLESEDGATYFCLQDSEYPLTFGSGTKLEIK

fold over isotype control [6]: 0.44 fold
fold over isotype control [7]: 0.21 fold
fold over isotype control [8]: 0.72 fold
B14: anti-LRP-8 BGK.6E3.F4 [r/m IgG2a/K] (antibody, V domains shown)
VH: EVQLVESGGGLVQPGKSLKLSCAASGFTFSDYNMAWVRQAPKKGLEWVATIMYDGSRTFYRDSVKGRYTFSRDNAKSTLYLQMDSLRSEDTATYYCATGRNWFAYWGQGTLVTVSS
VL: DIIMTQSPSSLAVSAGETVTINCKSSQSLLSSGKQKNYLAWYQQKPGQSPKLLIYLASTRESGVPDRFIGSGSGTDFTLTISSMQAEDLAIYYCQQHYDTPLTFGSGTKLEIK

fold over isotype control [6]: 0.45 fold
fold over isotype control [7]: 0.43 fold
fold over isotype control [8]: 0.19 fold
B15: anti-LRP-8 BGK.2C8.E6.D3 [r/m IgG2a/K] (antibody, V domains shown)
VH: QVTLKESGPGILQPSQTLSLTCTFSGFSLNTYGMGVGWVRQPSGKGLEWLANIWWDDDKFYNPSLKNRLTVSKDTSNNQAFLRITNGDTADTATYFCARILGEDIGGALDAWGQGTSVTVSS
VL: DTVLTQSPALAVSPGERVSISCRASEGVNSYMHWYQQNPGQQSKLLIYRTSNLASGVPARFGGSGSGTDFTLTIDPVEADDTATYFCQQSWNDPPTFGGGTKLELK

FACS (ratio +/-) [9]: 21.2
B16: anti-LRP-8 antibody CL-135325 (antibody, V domains shown)
VH: EVQLVQSGGGLVQPGGSLRLSCAASGFTFSIYAMSWVRQAPGKGLEWVSVISCSAGSTYYADSVKGRFTISRDNSKNTLYLQMNSLRAEDTAVYYCARHSVHEEFPFDVWGQGTLVTVSS
VL: DIQMTQSPSSLSASVGDRVTITCRASQSIGSYLNWYQQKPGKAPKLLIYAASSLQSGVPSRFSGSGSGTDFTLTISSLQPEDFATYYCQQSYIPPLTFGGGTKVEIK

FACS (ratio +/-) [9]: 7.3
B17: anti-LRP-8 antibody CL-135359 (antibody, V domains shown)
VH: EVQLVQSGGGLVQPGGSLRLSCAASGFTFSSYAMSWVRQAPGKGLEWVSVISCSGGTTYYADSVKGRFTISRDNSKNTLYLQMNSLRAEDTAVYYCARNGGQFDLWGQGTLVTVSS
VL: DIQMTQSPSSLSASVGDRVTITCRASQGICTYLNWYQQKPGKAPKLLIYAASSLQSGVPSRFSGSGSGTDFTLTISSLQPEDFATYYCQQSYNPPLTFGGGTKVEIK

fold over mIgG control [3]: 19.2 fold
B18: anti-LRP-8 antibody ab58216 (mFc) (antibody, V domains shown)
VH: EVHLQQSGPEVVKPGASVKISCKASGYIISGYFLNWVKQSHGKSLEWVGRINPYSGDTFFNQKFKGKATLTVDKSSNTAHMELRSLTSEDSAVFYCAREDIGRFAYWGQGTLVTVSA
VL: DVLMTQTPLSLPVSLGDQASISCRSSQTIVHSNGNTYLEWYLQKPGQSPKLLIYKVSNRFSGVPDRFSGSGSGTDFTLKISRVEAEDLGVYYCFQGSHAPPTFGGGTKLEIK

fold over mIgG control [3]: 1.2 fold
B19: anti-LRP-8 ML201-2B4.2B1.2H10 murine antibody (muFc) (antibody, V domains shown)
VH: DVKLVASGGGLVKPGGSLKLSCAASGFTLSRYAMSWVRQTPEKRLEWVAYIRNGGDYIYYADTVKGRFTISRDNARNTLYLQMSSLKSEDTAMYYCTREGSYYNFDYWGQGTTLTVSS
VL: DVLMTQTPLSLPVSLGDQASISCRSSQSIVHSNGNTYLEWYLQKPGQSPNLLIFKVSNRFSGVPDRFIGSGSGTDFTLKISRVEAEDLGVYYCFQGSHVPWTFGGGTKLEIK
